This series in a line: amyloid nucleation score (Sup35N fusion, yeast selection) (log enrichment); library NNK3; higher = more nucleation; inactive = no reads after selection. The method in brief: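 After 24 hours of induction with 100 μM copper sulfate, psi-negative yeast expressing peptides of 20 random codons fused to Sup35N were grown for 7 days at 30°C on medium lacking adenine and uracil. Input and output plasmid inserts were sequenced with Illumina, and sequences with under 100 input reads were discarded. Scores for nucleation are the DiMSum log enrichment of output over input reads, centred on the mode score of non-aggregating sequences.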

± gives the uncertainty stated by the source.

As to NYVLPIVCL, the amyloid nucleation score result was “inactive”.

For SARGCTNSSSNGLGRGHQTG, the amyloid nucleation score entry is “inactive”.

As to GFYNFVFSCASGYRCTGVMG, the amyloid nucleation score was -0.357 ± 0.59.

Turning to CVAECPLA, the amyloid nucleation score entry was “inactive”.

With MGVSWIII, the amyloid nucleation score result is “inactive”.

Regarding SRVHEVLNFCTY, the amyloid nucleation score result was “inactive”.

In the case of FVYTDVCSQFFRMGHFDTSY, the amyloid nucleation score was -0.21 ± 0.7.

In the case of MYYMVTGRLVICRN, the amyloid nucleation score entry was “inactive”.

On to FVGNGWSNFSL, for which the amyloid nucleation score entry was “inactive”.

Regarding GGKLKRCVYG, the amyloid nucleation score entry is “inactive”.

As for HNNTIVASWRHDNRACA, the amyloid nucleation score result was “inactive”.

FSNLYLVMTNCPSRDPPVYT: the amyloid nucleation score result is “inactive”.

With LCWKFAPRMLVYMMGY, the amyloid nucleation score entry was “inactive”.

Consider CSTIVWWEIAYKL, for which the amyloid nucleation score entry was “inactive”.

SAMCICLICALGVCPTMDGA showed an amyloid nucleation score of 2.5 ± 0.073.

For the substance NINYSPFISAQVGLIMAPLN, the amyloid nucleation score result was “inactive”.

With LLVLVV, the amyloid nucleation score entry is “inactive”.

For the substance YSNNILFAQEISQPYGHMFP, the amyloid nucleation score entry is “inactive”.

Consider GRYVCRL, for which the amyloid nucleation score was -0.459 ± 0.9.

The substance MNLYVSSLIGISARMWDWFS yielded an amyloid nucleation score of 0.289 ± 0.25.

RLPLLTTKSGMSDTYSAP: the amyloid nucleation score result is “inactive”.

With ENYLKVCVASVCPWLLHVRS, the amyloid nucleation score is -0.079 ± 0.48.

For the substance FNTIAIDTSLVGSNYAGATK, the amyloid nucleation score result was “inactive”.

In the case of FQPMV, the amyloid nucleation score entry is “inactive”.

For TLMYFILYYIGLYPE, the amyloid nucleation score entry is “inactive”.

Take STVQLYSPIQESVVTVFTNK: the amyloid nucleation score entry is “inactive”.

SHSMM: the amyloid nucleation score was -0.218 ± 0.66.

With PTIKDLDTSIFGYLLGSVGD, the amyloid nucleation score result was “inactive”.

As for YGNGWTFWSFLWGSTNRQRT, the amyloid nucleation score entry is “inactive”.

Substance SRLIIVPCCLL yielded an amyloid nucleation score of 0.478 ± 0.28.

With CAVYFLR, the amyloid nucleation score result is “inactive”.

In the case of SYNILHDVSQLGTRQPPLE, the amyloid nucleation score entry is “inactive”.

For the substance ISFSLH, the amyloid nucleation score result is “inactive”.

With KRECYMIIHI, the amyloid nucleation score result is “inactive”.

LYNRQVGKDANSFLYNRASQ: the amyloid nucleation score result was “inactive”.

As for YYMLWSKCCEYSAHRN, the amyloid nucleation score result was “inactive”.

Turning to NAFWAILVGPIDPEVSGTYG, the amyloid nucleation score entry was “inactive”.

Turning to SGYCYGFVMNDGHSSVRGDE, the amyloid nucleation score is -0.215 ± 0.74.

On to FVFSRNG, for which the amyloid nucleation score entry was “inactive”.

For DFYIGTGLISKVRLGHRCSC, the amyloid nucleation score is -0.305 ± 0.44.

With FFSAPMNEVKTGTILKGFVC, the amyloid nucleation score entry was “inactive”.

In turn, GIRVHGNFYMNSGSSTGG gave an amyloid nucleation score of 1.49 ± 0.073.

Take KCSFFMFAVEKEAKNWMVTN: the amyloid nucleation score entry is “inactive”.

Turning to WYAKWKVN, the amyloid nucleation score entry is “inactive”.

In the case of YGPQGVGLMGSLIAVISFIR, the amyloid nucleation score stood at 1.12 ± 0.16.

For the substance VTLDEFRIISHCSYSFCYEG, the amyloid nucleation score result is “inactive”.

With KGLSLGCIFKGLEFREQGVE, the amyloid nucleation score result is “inactive”.

Take VSWHNILMWTRTPL: the amyloid nucleation score result was “inactive”.

As to LEYAVVKSHQREESSSTCLG, the amyloid nucleation score entry is “inactive”.

Take LNWLC: the amyloid nucleation score came out at 1.07 ± 0.086.

Regarding VYTMVTMIDGIELFRWNLWS, the amyloid nucleation score entry is “inactive”.

Regarding SYCWRVSHGEYH, the amyloid nucleation score entry is “inactive”.

Consider HVMTHFG, for which the amyloid nucleation score entry is “inactive”.

Turning to TLGDGRPLCLREEWEGPVTC, the amyloid nucleation score result was “inactive”.

In the case of CSGDD, the amyloid nucleation score entry is “inactive”.

On to LFDCFVILKDFACEFKNIPD, for which the amyloid nucleation score entry is “inactive”.

Take YLDSSSS: the amyloid nucleation score entry is “inactive”.

LVNLTVTYISQYFPFYDSPT gave an amyloid nucleation score of 2.92 ± 0.062.

Consider FVHKNPHHRFAQMCTKANCR, for which the amyloid nucleation score result was “inactive”.

Regarding SMADPRFQESYEDRETYSIS, the amyloid nucleation score entry was “inactive”.

IIQDYGTVVD: the amyloid nucleation score entry was “inactive”.

With HMPDFVCLFNHVMPWIWIRV, the amyloid nucleation score entry is “inactive”.

For the substance PVLQIIRLADRLWLDIG, the amyloid nucleation score result is “inactive”.

As for RRSSRSRRHAKRRRAIVRCG, the amyloid nucleation score entry is “inactive”.

As for CDFIHCLVCFLPIWKSCGTE, the amyloid nucleation score was found to be 0.732 ± 0.34.

For the substance SWLFGLCYF, the amyloid nucleation score was 2.06 ± 0.085.

As to WKYWIWVFMNATYMDCVGML, the amyloid nucleation score entry is “inactive”.

As for FYLGRLSVNGRVVQRHNESM, the amyloid nucleation score entry is “inactive”.

For the substance PQDRFSE, the amyloid nucleation score stood at 1.29 ± 0.14.

YMAAVQSTKRNFMHCNKVGS: the amyloid nucleation score result was “inactive”.

IVSKMAVYMAGTSALVLPLL: the amyloid nucleation score is -0.086 ± 0.88.

On to NCICWASYQTGLE, for which the amyloid nucleation score result is “inactive”.

Regarding PNWEWIVYKMLGTFVHSWVM, the amyloid nucleation score result was “inactive”.

As for SMTWSRIAFEIMWNSVCRLI, the amyloid nucleation score result is “inactive”.

LGIRWLLACWVVENLDFPNI: the amyloid nucleation score was -0.719 ± 1.

For the substance TPWSYASLVLSVQCFGRLIM, the amyloid nucleation score result was “inactive”.

As to STSYYPDVRVATRSSYWHFT, the amyloid nucleation score stood at 1.14 ± 0.18.

Consider TFRFLSRLSRTLWAFSKGLC, for which the amyloid nucleation score entry is “inactive”.

KFCGEH: the amyloid nucleation score entry is “inactive”.

Turning to FGTLSQVHIH, the amyloid nucleation score result was “inactive”.

Consider FFVVC, for which the amyloid nucleation score result is “inactive”.

Regarding RSGFRLLIWYRKQMICLCNL, the amyloid nucleation score entry was “inactive”.

As for VDYFW, the amyloid nucleation score result is “inactive”.

Take CFPIASHGDSCGMIAA: the amyloid nucleation score entry is “inactive”.

For the substance NIVSFVGDVFHSLLVG, the amyloid nucleation score entry was “inactive”.

Regarding SLGKPSHREFYDFVVAAKTT, the amyloid nucleation score result is “inactive”.

Turning to WLMIMDFKCLSPRTRSWRRM, the amyloid nucleation score result is “inactive”.

For the substance WVYWRKSSILSTHRNIVKHW, the amyloid nucleation score result is “inactive”.

As for NMLKAASKTVKG, the amyloid nucleation score result was “inactive”.

Consider LGQFQCQE, for which the amyloid nucleation score entry was “inactive”.

In the case of CVNGTKEGTVRGSRARGRSF, the amyloid nucleation score entry is “inactive”.

For the substance NFLSALIYILMAYDRDFVYR, the amyloid nucleation score entry was “inactive”.

As for WFNLCYFG, the amyloid nucleation score is 2.5 ± 0.069.

In the case of SVPDCELVAYKSSLWCTHLT, the amyloid nucleation score entry was “inactive”.

On to FFLYLSKRLCVFCRCTYLGL, for which the amyloid nucleation score entry is “inactive”.

As to LLKVSGYWLMLRGLTRKFMG, the amyloid nucleation score was -0.047 ± 1.1.

As to LWRGLVIWLMLSGLKCGLHL, the amyloid nucleation score result was “inactive”.

As to CFHVILFK, the amyloid nucleation score stood at 1.11 ± 0.095.

Regarding ILVTASTAYLDVRVKWIQTF, the amyloid nucleation score result is “inactive”.

For the substance RKVGRLIPFHFCSN, the amyloid nucleation score entry is “inactive”.

In turn, MGFVHINGQCTQLLCCSRLK registered an amyloid nucleation score of 1.94 ± 0.072.

On to QWFAWARQWL, for which the amyloid nucleation score result was “inactive”.

For SLLVLETDGCFPVAPLAGDS, the amyloid nucleation score is -0.926 ± 1.1.

For FLHPLSLDSNFLNSVCHFKK, the amyloid nucleation score result is “inactive”.

The substance RCDCLRRNGSLHSQFNVSGG registered an amyloid nucleation score of 1.02 ± 0.2.

FISINTPPCLCMS: the amyloid nucleation score result was “inactive”.

As to FTHAIPVYDEVPNHDICDGS, the amyloid nucleation score result is “inactive”.

Consider QYLHAGGHVIVGTWYEVNMG, for which the amyloid nucleation score is 1.36 ± 0.16.

Regarding RYYLFLVPSGVWGYVVLRDS, the amyloid nucleation score turned out to be 0.656 ± 0.21.

Substance WWVIVGSAYVFDISIHFSSP returned an amyloid nucleation score of 1.24 ± 0.096.

As to LFFRLHYS, the amyloid nucleation score entry was “inactive”.

For PVNYVYLTRFH, the amyloid nucleation score entry is “inactive”.

LANSKLDCLSVHLFEHNCLA came in with an amyloid nucleation score of 1.95 ± 0.069.

Consider LPVHLDNMCFHVVRAEESRR, for which the amyloid nucleation score result was “inactive”.

With HRRIPL, the amyloid nucleation score entry was “inactive”.

For the substance TLGMLHRNWYYLLF, the amyloid nucleation score entry was “inactive”.

For FYEHLVRSNFLSLRRMVRTV, the amyloid nucleation score entry is “inactive”.

For VNIGTIWETDKCMEIFCAAA, the amyloid nucleation score entry was “inactive”.

For PRSEVTRTLYIFSVWHQMRI, the amyloid nucleation score result was “inactive”.

For the substance RKVKILWNDTLTFRT, the amyloid nucleation score entry is “inactive”.

PTPMNKKRHYHVDVASPFSL: the amyloid nucleation score entry is “inactive”.

As to VWETKMTLLINSKNYFVGFW, the amyloid nucleation score result is “inactive”.

Consider TTLGHTPPVCFSDPWAQARA, for which the amyloid nucleation score result is “inactive”.

For the substance KDYLWNILRIT, the amyloid nucleation score result was “inactive”.

On to MIIRGKPVIWMECLAVRTDR, for which the amyloid nucleation score result is “inactive”.

Turning to LCNKWY, the amyloid nucleation score result was “inactive”.

For TQFIELS, the amyloid nucleation score stood at 0.199 ± 0.32.

VRVLFGPFYYVFGSYLIGLV: the amyloid nucleation score result is “inactive”.

For NGWLLTRLSMHLTFGIYMLV, the amyloid nucleation score result is “inactive”.

Consider QKAYKYSDI, for which the amyloid nucleation score entry was “inactive”.

YCQVGINWFYGAGMKGYILS: the amyloid nucleation score entry is “inactive”.

For RHSNDCMNFEVIILIDSCLE, the amyloid nucleation score result is “inactive”.

MDVYLRCSGYILTPKMAWSQ: the amyloid nucleation score entry was “inactive”.

(Values after the supplement of paper PMC12042874.)
